Data on one substance can be found in publication PMC3883222.

What all share (assay): single-molecule fluorescence in zero-mode waveguides
In experiment [1] the target is Escherichia coli 70S ribosome (Cy3B-30S and BHQ-50S subunits) on biotinylated 6(FK) mRNA (E. coli) (UniProt P0AG67).
Experiment [2] shares this target. This is another data set of the same source.
Experiment [3] shares this target. The source holds these as a separate data set.

Like-named read-outs stand apart in the source and are kept apart here.

Turning to “Cy5-labeled single-cysteine elongation factor G (EF-G S73C on a cysteine-free background) (from UniProt P0A6M8 1-704) (enzyme)”, in experiment [1], the arrival time against that of EF-G-GDPNP was found to be 150 % longer and the bound-state lifetime stood at 332 ms. Also, in experiment [2], the dwell time was found to be 192 ms. In experiment [3], the arrival time against that of EF-G-GDPNP amounted to 150 % longer, the bound-state lifetime was found to be 191 ms, the dwell time stood at 1.64 s and the dwell time (events with counter-rotation) amounted to 122 ms. In experiment [3], this substance had a dwell time (sampling of the non-rotated state) of 64.2 ms; a dwell time (sampling of the rotated state, no conformational change) of 75.8 ms; a dwell time after the counter-rotation of 10 ms; a dwell time with fusidic acid of 8.4 s. Further, in experiment [3], the koff turned out to be 13.2 s⁻¹, the mean dwell time with spectinomycin (sampling of the rotated state) is 351 ms, the mean dwell time with spectinomycin (successful translocation events) was found to be 326 ms and the mean lifetime of the complex amounted to 1.62 s.

The koff is the rate constant with which the complex falls apart. Higher therefore signals a short-lived complex.
